# Legend:
# [1] = biological target: human transferrin receptor (TfR) (human) (UniProt P02786); assay: FACS on JSQ-3 cells, percent of cells above the fluorescence threshold
# [2] = biological target: human transferrin receptor (TfR) (human) (UniProt P02786); assay: FACS on DU145 cells, percent of cells above the fluorescence threshold
# [3] = biological target: human transferrin receptor (TfR) (human) (UniProt P02786); assay: indirect cellular ELISA on fixed JSQ-3 cells; highest concentration of Hb21 (100 µl), positive control
# [4] = biological target: human transferrin receptor (TfR) (human) (UniProt P02786); assay: indirect cellular ELISA on fixed JSQ-3 cells, anti-His detection; 1.5 µg of protein
# [5] = biological target: human transferrin receptor (TfR) (human) (UniProt P02786); assay: indirect cellular ELISA on fixed JSQ-3 cells, anti-His detection; 0.6 µg of protein
# [6] = biological target: human transferrin receptor (TfR) (human) (UniProt P02786); assay: indirect cellular ELISA on fixed JSQ-3 cells, anti-His detection
# [7] = biological target: human transferrin receptor (TfR) (human) (UniProt P02786); assay: indirect cellular ELISA on fixed JSQ-3 cells, anti-His detection; 3 µg of protein
# Sequence of human transferrin receptor (TfR) (human) (P02786 whole entry): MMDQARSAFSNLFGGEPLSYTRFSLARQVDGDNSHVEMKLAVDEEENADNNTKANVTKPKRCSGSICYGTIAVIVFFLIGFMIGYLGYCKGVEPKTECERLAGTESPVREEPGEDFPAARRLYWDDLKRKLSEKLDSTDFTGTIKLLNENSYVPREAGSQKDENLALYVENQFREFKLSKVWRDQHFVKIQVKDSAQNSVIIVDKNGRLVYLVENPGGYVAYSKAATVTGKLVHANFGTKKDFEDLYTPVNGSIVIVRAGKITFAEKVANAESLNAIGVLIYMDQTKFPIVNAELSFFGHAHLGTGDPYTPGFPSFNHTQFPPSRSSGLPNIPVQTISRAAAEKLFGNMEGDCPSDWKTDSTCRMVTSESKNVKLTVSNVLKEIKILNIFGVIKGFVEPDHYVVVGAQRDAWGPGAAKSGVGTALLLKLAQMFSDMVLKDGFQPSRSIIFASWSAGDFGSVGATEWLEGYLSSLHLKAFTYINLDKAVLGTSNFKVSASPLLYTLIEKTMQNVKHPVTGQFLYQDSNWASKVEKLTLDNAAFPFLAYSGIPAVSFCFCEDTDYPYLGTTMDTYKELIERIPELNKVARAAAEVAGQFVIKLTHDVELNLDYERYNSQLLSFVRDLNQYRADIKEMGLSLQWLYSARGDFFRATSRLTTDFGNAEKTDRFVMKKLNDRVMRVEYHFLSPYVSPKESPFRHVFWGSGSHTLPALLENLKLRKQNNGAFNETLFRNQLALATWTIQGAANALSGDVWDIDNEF
% Positive [1],% Positive [2],OD490 [3],OD490 [4],OD490 [5],OD490 [6],OD490 [7],Substance
99.4%,98.7%,0.033 OD490,,,,,HB21 anti-transferrin receptor monoclonal antibody
,,,0.1 OD490,0.06 OD490,0.235 OD490,0.132 OD490,"TfRscFv containing a C-terminal cysteine, with a His tag"

# Source: patent publication US7479276
